Assay results from patent publication US20240174758A1 (AstraZeneca / MedImmune, published 2024).
Numbering of substitutions follows the chain as printed.

B1: Humanised AB1020243 (AB1020243-fgl) (antibody, V domains shown)
VH: QVQLVQSGAEVKKPGASVKVSCKASGYTFTSYWMHWVRQAPGQGLEWIGVIYPGNSDTRYNQKFKGRVTITRDTSASTAYMELSSLRSEDTAVYYCTRDYYSNYVYYYAMDYWGQGTTVTVSS
VL: DIVMTQTPLSLPVTPGEPASISCRSSQSLVHSNGNTYLHWYLQKPGQSPQLLIYKVSNRFSGVPDRFSGSGSGTDFTLKISRVEAEDVGVYYCSQSTHVPWTFGQGTKLEIK
notes: For LigandTracer it was labelled with DyLight 650 on an engineered cysteine in CH2; also called humanised AB1020243 afuc
B2: AB243LO0326 (antibody, V domains shown)
VH: B1 VH
VL: B1 VL with S32P, G34R
notes: CDR-optimised humanised antibody, a-fuc huIgG1 (afucosylated in all experiments); For LigandTracer it was labelled with DyLight 650 on an engineered cysteine in CH2; also called CDR-optimised AB1020243
B3: AB243LO0331 (antibody, V domains shown)
VH: B1 VH
VL: B1 VL with G34T
notes: CDR-optimised humanised antibody, a-fuc huIgG1 (afucosylated in all experiments); The constant regions are not expressly tied to it

What was measured:
[1] = target: CCR9 (species and isoform not stated) (UniProt P51686)
[2] = target: human CCR9 (isoform not given) (human) (UniProt P51686); test: cell-based or functional assay
[3] = target: CCR9 (species and isoform not stated) (UniProt P51686); test: LigandTracer on CCR9-expressing CHO K1 cells, DyLight 650 labelled IgG, bivalent (1:2) fit, about 22 C
human CCR9B [4] = target: T1, human CCR9B (human, UniProt P51686 13-369); test: binding to HEK cells expressing human CCR9B (huCCR9B), FL1 counts against Log M, methods of Example 4
T1 construct: Overexpressed on HEK cells; also called Hu B HEK; hCCR9 isoform B
T1 sequence: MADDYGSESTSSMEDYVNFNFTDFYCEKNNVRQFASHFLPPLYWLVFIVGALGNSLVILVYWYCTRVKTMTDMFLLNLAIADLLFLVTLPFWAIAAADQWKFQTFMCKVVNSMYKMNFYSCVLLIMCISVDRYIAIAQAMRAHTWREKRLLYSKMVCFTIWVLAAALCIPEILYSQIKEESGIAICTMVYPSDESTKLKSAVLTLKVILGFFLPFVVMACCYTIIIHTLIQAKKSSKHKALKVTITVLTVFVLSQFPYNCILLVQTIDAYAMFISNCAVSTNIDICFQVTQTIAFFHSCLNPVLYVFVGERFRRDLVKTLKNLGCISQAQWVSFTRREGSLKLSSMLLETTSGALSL

[5] = target: CCR9 (species and isoform not stated) (UniProt P51686); test: cell-based or functional assay
[6] = target: human CCR9 (isoform not given) (human), P51686
cynomolgus CCR9 = target: T2, cynomolgus CCR9 (cynomolgus, UniProt Q0H741 1-369); test: cell-based or functional assay
T2 sequence: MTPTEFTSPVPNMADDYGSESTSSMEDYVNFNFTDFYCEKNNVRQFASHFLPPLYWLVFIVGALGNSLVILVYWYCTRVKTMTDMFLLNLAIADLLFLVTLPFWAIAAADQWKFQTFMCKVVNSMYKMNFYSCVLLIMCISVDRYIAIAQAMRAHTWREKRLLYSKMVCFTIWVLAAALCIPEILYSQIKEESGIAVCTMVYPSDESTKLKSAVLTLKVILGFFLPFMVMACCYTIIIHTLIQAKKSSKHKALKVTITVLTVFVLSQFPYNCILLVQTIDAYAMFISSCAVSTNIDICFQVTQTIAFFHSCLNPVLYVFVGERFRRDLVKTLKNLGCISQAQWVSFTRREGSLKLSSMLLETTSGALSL

[7] = target: human CCR9 (isoform not given) (human), P51686; test: cell-based or functional assay
mouse CCR9 = target: T3, mouse CCR9 (mouse, UniProt Q9WUT7 1-369); test: cell binding by the methods of Example 4
T3 construct: whole, on cells; Overexpressed on HEK cells; also called mCCR9; Mouse HEK
T3 sequence (looked up): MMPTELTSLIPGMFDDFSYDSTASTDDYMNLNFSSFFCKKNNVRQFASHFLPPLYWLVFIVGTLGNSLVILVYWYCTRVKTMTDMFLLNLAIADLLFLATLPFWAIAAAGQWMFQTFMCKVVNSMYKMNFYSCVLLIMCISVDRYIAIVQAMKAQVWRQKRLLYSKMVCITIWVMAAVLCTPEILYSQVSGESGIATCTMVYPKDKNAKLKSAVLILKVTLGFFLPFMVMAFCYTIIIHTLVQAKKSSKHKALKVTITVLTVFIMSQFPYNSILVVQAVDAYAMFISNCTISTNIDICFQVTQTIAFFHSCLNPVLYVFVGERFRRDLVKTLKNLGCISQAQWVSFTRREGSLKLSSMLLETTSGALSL

rat CCR9 = target: T4, rat CCR9 (rat, UniProt Q8CH33 1-369); test: cell binding by the methods of Example 4
T4 construct: Overexpressed on HEK cells; also called Rat HEK
T4 sequence: T3 sequence (looked up) with M2T, L6F, F17Y, I60V, L64V, V189I, T197I, S272C, A283T

human CCR9A = target: T5, human CCR9A (human, UniProt P51686 1-369); test: binding to cells expressing human CCR9A, FL1 counts against Log M, methods of Example 4
T5 construct: Overexpressed on HEK cells; also called Hu A HEK; hCCR9 isoform A
T5 sequence: T2 sequence with E5D, V10I, V197I, M228V, S288N

human CCR9B [8] = target: T1, human CCR9B; test: binding to cells expressing human CCR9B, FL1 counts against Log M, methods of Example 4

Binder | EC50 of a CPS dose-response curve (potency; luminescence counts per second as in the NK cell activation assay of Example 4); target cells not named on the sheet (M (axis Log M; no unit in the table)) [1] | Potency, NK cell activation assay (NK-92 MI CD16a NFAT luciferase, in vitro ADCC bioassay) [2] | koff [3] | binding result (human CCR9B [4]) | CCL25 induced CCR9 internalisation (FACS) [5] | IC50 (read off the curve) [6] | EC50, killing of cynomolgus CD4+CCR9+ PBMC (cynomolgus CCR9) | EC50, killing of PBMC [7] | EC50, killing of human CD4+CCR9+ PBMC [7] | binding result (mouse CCR9) | binding result (rat CCR9) | Kd [3] | binding result (human CCR9A) | binding result (human CCR9B [8])
B1 | 7.3e-09 | 800 pM | 4.3e-05 s⁻¹ | binds | – | – | – | – | – | – | – | – | – | –
B2 | – | – | – | – | 2 nM | 700 pM | 30 pM | 4 pM | 4 to 5 pM | no binding | no binding | 90 pM | binds | binds
B3 | – | – | – | – | – | 700 pM | – | – | – | no binding | no binding | – | – | –
